Experiment [1] has as its system natural regulatory T cells (nTregs). Kind of experiment: nTreg suppression assay (CFSE dilution). In kind it is cell-based, human. As to conditions: nTregs pre-incubated with 7 μM dRA for 8 hr; 1:1 co-culture; FIG. 14. The method, then: FIG. 14. C5L2 blockage decreases suppressive activity of natural regulatory T cells (nTregs). nTregs and effector T cells from a freshly drawn human blood sample were separated by cell sorting (CD4^+CD25^hiCD127^lo Treg cells; CD4^+CD25^loCD127^hi effector T cells). nTreg cells were incubated in media containing 7 μM of the C5ar/C5L2 double antagonist (dRA) for 8 hr. Cells were then washed twice to remove the dRA and used for a suppression assay via CSFE dilution measurement in 1:1 co-culture and percentage of suppression calculated. Shown are the mean values of two separately performed experiments.
nTregs were isolated essentially as described in Yates, J., et al., Int Immunol. (2007) 19(6):785-99. […]
Principle • Label target cells (T effectors (Teff) usually) with 1 μM CFSE as described • Activate cells with and without Tregs in serial dilution (constant Teff numbers) • CFSE will be evenly split among daughter cells, so peaks on flow will correspond to each round of division (halving of CFSE) • The percentage of dividing precursors can be calculated this way. • In the presence of Tregs, the suppression of division can be estimated. […]
• 1. […] Acquire FL1 fluorescence of each well on day 4 and calculate suppression of CFSE dilution by Tregs (different methods exist for this) * If there is inadequate CFSE labelling, pulse with ^3H-Thymidine on day 5 instead, as a readout for suppression. […]

The subject of another experiment is human CD4+ T cells. Kind of experiment: IL-1β secretion by CD4+ T cells (ELISA). As to conditions: resting and activated (CD3/CD46) CD4+ T cells; dRA 7 μM; 24 h; FIG. 8. The class given is cell-based. The method, then: FIG. 8. Effect of C5L2 blockage on IL-1β secretion by resting and activated CD4+ T cells and by monocytes. […] CD4+ T cells were isolated and left non-activated or CD3/CD46-activated as described (with or without addition of the C5aR/C5L2 double antagonist, dRA, 7 μM) and IL-1β secretion into the media measured at 24 h post activation using an ELISA. CD14+ monocytes (2.5×10^5) were left non-activated or activated with 100 ng/ml LPS for 12 h and supernatants assayed for IL-1β by ELISA. Data represent n=3 experiments with SEM for the CD4+ T cells and n=1 for monocytes (conditions were performed in duplicate and shown are the median values of each condition).
Human blood was obtained from healthy volunteers following ethical guidelines set by Kings College London (KCL) ethics committee (REC: 09/H0804/72). PBMCs were isolated by density centrifugation (Ficoll-Paque PLUS; GE healthcare, Uppsala, Sweden). Cell subsets were isolated by magnetic separation following manufacturer's instructions (Miltenyi Biotec, Auburn, Calif.). […]
The Th1/Th2/Th17 Cytometric Bead Array (BD Bioscience) was used to quantify cytokine production by CD4^+ T cells and monocytes following 12 or 36 h culture under distinct activation conditions. […] IL-1β amounts secreted into the cell media were measured by ELISA, according to the manufacturer's protocol (R&D Systems, Abingdon, UK).
For orientation: In an ELISA, binding on a coated surface is turned into a signal by an enzyme label.

B1: A8delta71-73: Dual C5aR/C5L2 receptor antagonist; C5a variant A8 (C27A, H67F, D69R, M70S, Q71L, G73R, Arg74 deleted) lacking amino acids 71-73 (protein)
chain: TLQKKIEEIAAKYKHSVVKKCCYDGAAVNNDETCEQRAARISLGPRCIKAFTECCVVASQLRANISFKRS
On to B1, for which the “suppressor function of nTregs” value in experiment [1] is “markedly reduced”. Also, in the experiment with human CD4+ T cells, the IL-1β secretion result is reported as “increased IL-1β secretion”.

The values are drawn from patent US20220088131A1, “COMPOSITIONS AND METHODS RELATING TO C5L2” (King's College London, priority 2013, published 2022).
